# Source: article PMC9482650, “Quantitative fragmentomics allow affinity mapping of interactomes” (Nature Communications, 2022)
# T1: APBA1_2, Q02410
# T1 sequence (Q02410 742-832, limits assumed, looked up): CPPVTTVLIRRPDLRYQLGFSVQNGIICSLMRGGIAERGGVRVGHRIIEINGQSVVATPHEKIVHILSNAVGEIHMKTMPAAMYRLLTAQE
# T2: LRRC7, Q96NW7
# T2 sequence (Q96NW7 1440-1537, limits assumed, looked up): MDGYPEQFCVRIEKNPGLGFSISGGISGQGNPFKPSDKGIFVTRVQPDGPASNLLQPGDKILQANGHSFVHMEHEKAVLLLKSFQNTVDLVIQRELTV
# T3: DFNB31_1, Q9P202
# T3 sequence (Q9P202 135-233, limits assumed, looked up): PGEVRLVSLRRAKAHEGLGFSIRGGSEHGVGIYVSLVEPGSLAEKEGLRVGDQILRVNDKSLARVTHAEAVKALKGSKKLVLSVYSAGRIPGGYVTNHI
# T4: APBA1_1, Q02410
# T4 sequence (Q02410 651-752, limits assumed, looked up): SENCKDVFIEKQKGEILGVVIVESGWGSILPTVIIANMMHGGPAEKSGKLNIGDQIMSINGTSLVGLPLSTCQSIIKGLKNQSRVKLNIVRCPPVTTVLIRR
# T5: FRMPD1, Q5SYB0
# T5 sequence (Q5SYB0 52-145, limits assumed, looked up): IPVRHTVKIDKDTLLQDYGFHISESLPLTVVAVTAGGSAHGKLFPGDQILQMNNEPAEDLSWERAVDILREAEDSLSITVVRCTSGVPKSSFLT
# T6: NHERF3_1, Q5T2W1
# T6 sequence (Q5T2W1 4-100, limits assumed, looked up): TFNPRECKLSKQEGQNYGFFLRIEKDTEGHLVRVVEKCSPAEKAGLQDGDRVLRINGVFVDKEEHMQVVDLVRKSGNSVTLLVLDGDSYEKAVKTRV
# T7: NHERF3_4, Q5T2W1
# T7 sequence (Q5T2W1 373-468, limits assumed, looked up): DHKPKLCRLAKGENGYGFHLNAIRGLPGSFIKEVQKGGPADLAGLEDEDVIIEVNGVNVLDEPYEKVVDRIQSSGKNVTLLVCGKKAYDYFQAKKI
# T8: GRIP1_7, Q9Y3R0
# T8 sequence (Q9Y3R0 999-1096, limits assumed, looked up): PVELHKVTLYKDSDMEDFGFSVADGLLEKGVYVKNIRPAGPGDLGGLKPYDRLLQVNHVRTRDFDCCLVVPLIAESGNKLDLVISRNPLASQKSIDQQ
# T9: PTPN13_1, Q12923
# T9 sequence (Q12923 1088-1188, limits assumed, looked up): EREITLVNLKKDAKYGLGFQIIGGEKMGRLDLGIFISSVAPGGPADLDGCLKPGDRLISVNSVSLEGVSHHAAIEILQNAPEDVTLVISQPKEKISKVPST
# T10: APBA3_1, O96018
# T10 sequence (O96018 389-490, limits assumed, looked up): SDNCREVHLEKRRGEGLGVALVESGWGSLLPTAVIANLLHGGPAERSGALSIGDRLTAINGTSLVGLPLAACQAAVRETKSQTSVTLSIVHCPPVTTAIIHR
# T11: APBA2_1, Q99767
# T11 sequence (Q99767 563-664, limits assumed, looked up): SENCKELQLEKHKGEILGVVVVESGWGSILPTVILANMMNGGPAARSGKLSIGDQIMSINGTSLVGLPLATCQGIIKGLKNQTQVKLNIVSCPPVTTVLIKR
# T12: NHERF3_3, Q5T2W1
# T12 sequence (Q5T2W1 238-333, limits assumed, looked up): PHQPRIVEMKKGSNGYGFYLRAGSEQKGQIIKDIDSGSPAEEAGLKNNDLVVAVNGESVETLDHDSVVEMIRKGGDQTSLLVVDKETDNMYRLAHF
# Assays:
# Experiment in all cases: holdup assay
# Set-up in all cases: key: below the threshold = too weak to quantify, mostly under pKd 3.1 to 4
# Settings in all cases: plain residues with an end cap or a label only (N-terminal biotin on a linker: ado-ado)
# APBA1_2, Q02410 = target: T1, APBA1_2, Q02410
# GRID2IP_1, A4D2P6 = target: GRID2IP_1, A4D2P6
# GRID2IP_1, A4D2P6, sequence (A4D2P6 1-87): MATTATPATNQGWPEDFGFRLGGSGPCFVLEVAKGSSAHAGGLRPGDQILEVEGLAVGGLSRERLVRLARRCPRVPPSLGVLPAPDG
# DLG1_3, Q12959 = target: DLG1_3, Q12959
# LRRC7, Q96NW7 = target: T2, LRRC7, Q96NW7
# DLG1_2, Q12959 = target: DLG1_2, Q12959
# FRMPD3, Q5JV73 = target: FRMPD3, Q5JV73
# FRMPD3, Q5JV73, sequence (Q5JV73 12-100): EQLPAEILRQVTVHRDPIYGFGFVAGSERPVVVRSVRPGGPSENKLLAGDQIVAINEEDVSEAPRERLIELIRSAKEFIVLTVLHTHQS
# DFNB31_1, Q9P202 = target: T3, DFNB31_1, Q9P202
# Inadl_5, Q8NI35 = target: Inadl_5, Q8NI35
# Inadl_5, Q8NI35, sequence (Q8NI35 673-780): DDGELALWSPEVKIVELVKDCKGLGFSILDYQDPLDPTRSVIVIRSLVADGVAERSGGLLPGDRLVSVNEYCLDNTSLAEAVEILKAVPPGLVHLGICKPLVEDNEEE
# APBA1_1, Q02410 = target: T4, APBA1_1, Q02410
# FRMPD1, Q5SYB0 = target: T5, FRMPD1, Q5SYB0
# NHERF3_1, Q5T2W1 = target: T6, NHERF3_1, Q5T2W1
# NHERF3_4, Q5T2W1 = target: T7, NHERF3_4, Q5T2W1
# Inadl_2, Q8NI35 = target: Inadl_2, Q8NI35
# Inadl_2, Q8NI35, sequence (Q8NI35 238-335): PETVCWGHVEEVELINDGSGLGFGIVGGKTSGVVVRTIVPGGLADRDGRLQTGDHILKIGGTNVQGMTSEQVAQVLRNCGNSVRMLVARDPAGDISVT
# MAGI2_3, Q86UL8 = target: MAGI2_3, Q86UL8
# MAGI2_3, Q86UL8, sequence (Q86UL8 600-682): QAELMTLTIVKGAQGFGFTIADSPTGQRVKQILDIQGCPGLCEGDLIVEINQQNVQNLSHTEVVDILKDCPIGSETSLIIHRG
# HTRA2, O43464 = target: HTRA2, O43464
# HTRA2, O43464, sequence (O43464 355-458): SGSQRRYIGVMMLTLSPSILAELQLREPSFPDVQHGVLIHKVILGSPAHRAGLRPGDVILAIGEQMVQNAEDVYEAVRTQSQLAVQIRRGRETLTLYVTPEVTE
# GRIP1_7, Q9Y3R0 = target: T8, GRIP1_7, Q9Y3R0
# DLG1_1, Q12959 = target: DLG1_1, Q12959
# GRIP2_7, Q9C0E4 = target: GRIP2_7, Q9C0E4
# GRIP2_7, Q9C0E4, sequence (Q9C0E4 934-1023): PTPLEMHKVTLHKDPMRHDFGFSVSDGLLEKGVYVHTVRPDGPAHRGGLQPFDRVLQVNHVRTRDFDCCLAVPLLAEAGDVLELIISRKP
# FRMPD4, Q14CM0 = target: FRMPD4, Q14CM0
# FRMPD4, Q14CM0, sequence (Q14CM0 67-160): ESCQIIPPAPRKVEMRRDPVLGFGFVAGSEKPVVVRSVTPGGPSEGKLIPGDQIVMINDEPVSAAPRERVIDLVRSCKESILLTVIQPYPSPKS
# DLG2_3, Q15700 = target: DLG2_3, Q15700
# IL16_4, Q14005 = target: IL16_4, Q14005
# IL16_4, Q14005, sequence (Q14005 1229-1329): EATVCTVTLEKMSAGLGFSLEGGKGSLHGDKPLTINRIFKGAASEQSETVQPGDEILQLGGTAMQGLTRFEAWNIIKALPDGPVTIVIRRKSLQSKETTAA
# PTPN13_1, Q12923 = target: T9, PTPN13_1, Q12923
# APBA3_1, O96018 = target: T10, APBA3_1, O96018
# MAGI2_2, Q86UL8 = target: MAGI2_2, Q86UL8
# MAGI2_2, Q86UL8, sequence (Q86UL8 410-522): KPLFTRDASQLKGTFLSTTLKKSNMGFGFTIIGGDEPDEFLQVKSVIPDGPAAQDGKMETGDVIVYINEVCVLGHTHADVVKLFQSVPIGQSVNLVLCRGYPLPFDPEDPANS
# APBA2_1, Q99767 = target: T11, APBA2_1, Q99767
# NHERF3_3, Q5T2W1 = target: T12, NHERF3_3, Q5T2W1
Binder,"pKd (APBA1_2, Q02410)","pKd (GRID2IP_1, A4D2P6)","pKd (DLG1_3, Q12959)","pKd (LRRC7, Q96NW7)","pKd (DLG1_2, Q12959)","pKd (FRMPD3, Q5JV73)","pKd (DFNB31_1, Q9P202)","pKd (Inadl_5, Q8NI35)","pKd (APBA1_1, Q02410)","pKd (FRMPD1, Q5SYB0)","pKd (NHERF3_1, Q5T2W1)","pKd (NHERF3_4, Q5T2W1)","pKd (Inadl_2, Q8NI35)","pKd (MAGI2_3, Q86UL8)","pKd (HTRA2, O43464)","pKd (GRIP1_7, Q9Y3R0)","pKd (DLG1_1, Q12959)","pKd (GRIP2_7, Q9C0E4)","pKd (FRMPD4, Q14CM0)","pKd (DLG2_3, Q15700)",other results
"RRRESYSTTV [EVI5, O60447]",3.74,below the threshold,4.16,below the threshold,5.57,below the threshold,3.52,3.63,below the threshold,below the threshold,4.31,below the threshold,below the threshold,below the threshold,below the threshold,below the threshold,5.66,below the threshold,3.79,4.52,"pKd (IL16_4, Q14005): below the threshold; pKd (PTPN13_1, Q12923): below the threshold; pKd (APBA3_1, O96018): below the threshold; pKd (MAGI2_2, Q86UL8): 5.15; pKd (APBA2_1, Q99767): below the threshold; pKd (NHERF3_3, Q5T2W1): below the threshold"
"LRSPRTPSEV [OR10G3, Q8NGC4]",4.1,below the threshold,below the threshold,3.48,4.1,below the threshold,below the threshold,4.73,below the threshold,below the threshold,below the threshold,below the threshold,below the threshold,3.55,below the threshold,below the threshold,below the threshold,below the threshold,below the threshold,below the threshold,"pKd (IL16_4, Q14005): 3.53; pKd (PTPN13_1, Q12923): 3.71; pKd (APBA3_1, O96018): below the threshold; pKd (MAGI2_2, Q86UL8): 4.27; pKd (APBA2_1, Q99767): below the threshold; pKd (NHERF3_3, Q5T2W1): 3.54"
